Source: patent US20220002362A1

Molecular target: OptoSTIM1 (CRY2 E281A) (Arabidopsis thaliana) (UniProt Q13586)
Test: cell-based or functional assay

OptoSTIM1 (CRY2 E281A) (from UniProt Q13586 238-668)
activation half-maximal time (R-GECO1 level upon light stimulation): 62 s | inactivation half time (R-GECO1 level after light removal): 7 min
